The supplement of paper PMC10567573

B1: SMG5 (parent)
chain: TNPDLIIVCAQSSQSLWNRLSVLL

Variants of: B1
Test: protein stability index of a GFP-peptide fusion (GPS, HEK-293T) (PSI 1-6); higher = more stable
Details: c terminus: a fixed tail appended
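Note: lentivirally expressed fusions sorted by FACS into six bins by GFP to DsRed ratio, PSI derived from sequencing read proportions per bin multiplied by bin number.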

| Variant | protein stability index |
| --- | --- |
| TNPDDIIVCAQSSQSLWNRLSVLL [L5D] | 1.76 |
| TNPDKIIVCAQSSQSLWNRLSVLL [L5K] | 2.82 |
| TNPDYIIVCAQSSQSLWNRLSVLL [L5Y] | 1.47 |
| TNPDCIIVCAQSSQSLWNRLSVLL [L5C] | 3.93 |
| TNPDAIIVCAQSSQSLWNRLSVLL [L5A] | 2.09 |
| TNPDHIIVCAQSSQSLWNRLSVLL [L5H] | 1.29 |
| TNPDSIIVCAQSSQSLWNRLSVLL [L5S] | 2.17 |
| TNPDWIIVCAQSSQSLWNRLSVLL [L5W] | 1.4 |
| TNPDRIIVCAQSSQSLWNRLSVLL [L5R] | 1.39 |
| TNPDEIIVCAQSSQSLWNRLSVLL [L5E] | 2.95 |
| TNPDIIIVCAQSSQSLWNRLSVLL [L5I] | 2.06 |
| TNPDVIIVCAQSSQSLWNRLSVLL [L5V] | 2.51 |
| TNPDFIIVCAQSSQSLWNRLSVLL [L5F] | 3.72 |
| TNPDNIIVCAQSSQSLWNRLSVLL [L5N] | 1.63 |
| TNPDQIIVCAQSSQSLWNRLSVLL [L5Q] | 1.73 |
| TNPDPIIVCAQSSQSLWNRLSVLL [L5P] | 2.94 |
| TNPDGIIVCAQSSQSLWNRLSVLL [L5G] | 1.54 |
| TNPDTIIVCAQSSQSLWNRLSVLL [L5T] | 2.4 |
| TNPDMIIVCAQSSQSLWNRLSVLL [L5M] | 2.01 |
| TNPDLIWVCAQSSQSLWNRLSVLL [I7W] | 4.05 |
| TNPDLIVVCAQSSQSLWNRLSVLL [I7V] | 1.1 |
| TNPDLICVCAQSSQSLWNRLSVLL [I7C] | 2.48 |
| TNPDLIQVCAQSSQSLWNRLSVLL [I7Q] | 1.6 |
| TNPDLILVCAQSSQSLWNRLSVLL [I7L] | 3.84 |

| Variant | protein stability index |
| --- | --- |
| TNPDLIAVCAQSSQSLWNRLSVLL [I7A] | 1.51 |
| TNPDLINVCAQSSQSLWNRLSVLL [I7N] | 1.64 |
| TNPDLIFVCAQSSQSLWNRLSVLL [I7F] | 1.45 |
| TNPDLIDVCAQSSQSLWNRLSVLL [I7D] | 1.7 |
| TNPDLIKVCAQSSQSLWNRLSVLL [I7K] | 1.71 |
| TNPDLIYVCAQSSQSLWNRLSVLL [I7Y] | 1.65 |
| TNPDLIRVCAQSSQSLWNRLSVLL [I7R] | 2.02 |
| TNPDLIMVCAQSSQSLWNRLSVLL [I7M] | 1.67 |
| TNPDLISVCAQSSQSLWNRLSVLL [I7S] | 1.34 |
| TNPDLIPVCAQSSQSLWNRLSVLL [I7P] | 2.41 |
| TNPDLIEVCAQSSQSLWNRLSVLL [I7E] | 2.25 |
| TNPDLITVCAQSSQSLWNRLSVLL [I7T] | 1.66 |
| TNPDLIHVCAQSSQSLWNRLSVLL [I7H] | 1.68 |
| TNPDLIGVCAQSSQSLWNRLSVLL [I7G] | 2.55 |
| TNSDLIIVCAQSSQSLWNRLSVLL [P3S] | 2.5 |
| TNTDLIIVCAQSSQSLWNRLSVLL [P3T] | 2.8 |
| TNQDLIIVCAQSSQSLWNRLSVLL [P3Q] | 1.71 |
| TNIDLIIVCAQSSQSLWNRLSVLL [P3I] | 4.44 |
| TNDDLIIVCAQSSQSLWNRLSVLL [P3D] | 1.77 |
| TNLDLIIVCAQSSQSLWNRLSVLL [P3L] | 2.29 |
| TNMDLIIVCAQSSQSLWNRLSVLL [P3M] | 2.64 |
| TNEDLIIVCAQSSQSLWNRLSVLL [P3E] | 2.57 |
| TNKDLIIVCAQSSQSLWNRLSVLL [P3K] | 2.48 |
| TNGDLIIVCAQSSQSLWNRLSVLL [P3G] | 3.64 |

| Variant | protein stability index |
| --- | --- |
| TNWDLIIVCAQSSQSLWNRLSVLL [P3W] | 3.4 |
| TNFDLIIVCAQSSQSLWNRLSVLL [P3F] | 2.18 |
| TNRDLIIVCAQSSQSLWNRLSVLL [P3R] | 3.61 |
| TNNDLIIVCAQSSQSLWNRLSVLL [P3N] | 2.52 |
| TNVDLIIVCAQSSQSLWNRLSVLL [P3V] | 4.46 |
| TNADLIIVCAQSSQSLWNRLSVLL [P3A] | 3.05 |
| TNPDLIIMCAQSSQSLWNRLSVLL [V8M] | 1.46 |
| TNPDLIIACAQSSQSLWNRLSVLL [V8A] | 1.43 |
| TNPDLIISCAQSSQSLWNRLSVLL [V8S] | 1.7 |
| TNPDLIIHCAQSSQSLWNRLSVLL [V8H] | 1.91 |
| TNPDLIIICAQSSQSLWNRLSVLL [V8I] | 2.93 |
| TNPDLIIQCAQSSQSLWNRLSVLL [V8Q] | 1.85 |
| TNPDLIICCAQSSQSLWNRLSVLL [V8C] | 1.36 |
| TNPDLIILCAQSSQSLWNRLSVLL [V8L] | 3.74 |
| TNPDLIIKCAQSSQSLWNRLSVLL [V8K] | 1.47 |
| TNPDLIIGCAQSSQSLWNRLSVLL [V8G] | 2.27 |
| TNPDLIITCAQSSQSLWNRLSVLL [V8T] | 1.72 |
| TNPDLIIECAQSSQSLWNRLSVLL [V8E] | 1.56 |
| TNPDLIIPCAQSSQSLWNRLSVLL [V8P] | 1.31 |
| TNPDLIIRCAQSSQSLWNRLSVLL [V8R] | 2.22 |
| TNPDLIIYCAQSSQSLWNRLSVLL [V8Y] | 2.59 |
| TNPDLIIDCAQSSQSLWNRLSVLL [V8D] | 2.09 |
| TNPDLIIWCAQSSQSLWNRLSVLL [V8W] | 2.69 |
| TNPDLIINCAQSSQSLWNRLSVLL [V8N] | 1.88 |

| Variant | protein stability index |
| --- | --- |
| TNPGLIIVCAQSSQSLWNRLSVLL [D4G] | 1.65 |
| TNPPLIIVCAQSSQSLWNRLSVLL [D4P] | 1.95 |
| TNPMLIIVCAQSSQSLWNRLSVLL [D4M] | 4.85 |
| TNPRLIIVCAQSSQSLWNRLSVLL [D4R] | 1.94 |
| TNPHLIIVCAQSSQSLWNRLSVLL [D4H] | 3.73 |
| TNPQLIIVCAQSSQSLWNRLSVLL [D4Q] | 2.18 |
| TNPFLIIVCAQSSQSLWNRLSVLL [D4F] | 1.71 |
| TNPKLIIVCAQSSQSLWNRLSVLL [D4K] | 3.33 |
| TNPALIIVCAQSSQSLWNRLSVLL [D4A] | 1.33 |
| TNPSLIIVCAQSSQSLWNRLSVLL [D4S] | 1.76 |
| TNPVLIIVCAQSSQSLWNRLSVLL [D4V] | 1.67 |
| TNPCLIIVCAQSSQSLWNRLSVLL [D4C] | 1.05 |
| TNPILIIVCAQSSQSLWNRLSVLL [D4I] | 2.79 |
| TNPDLIIVCWQSSQSLWNRLSVLL [A10W] | 2.35 |
| TNPDLIIVCQQSSQSLWNRLSVLL [A10Q] | 2.4 |
| TNPDLIIVCTQSSQSLWNRLSVLL [A10T] | 2.17 |
| TNPDLIIVCNQSSQSLWNRLSVLL [A10N] | 1.95 |
| TNPDLIIVCVQSSQSLWNRLSVLL [A10V] | 4.35 |
| TNPDLIIVCGQSSQSLWNRLSVLL [A10G] | 1.98 |
| TNPDLIIVCDQSSQSLWNRLSVLL [A10D] | 2.01 |
| TNPDLIIVCYQSSQSLWNRLSVLL [A10Y] | 3.09 |
| TNPDLIIVCSQSSQSLWNRLSVLL [A10S] | 2.94 |
